Assay results taken from IntAct's records for PubMed 20890290.

B1: Elongation factor 1 alpha-like protein (Schizosaccharomyces pombe (strain ATCC 38366 / 972)), O74774 (parent)
chain: MSRHRDVKNLDLDDYELDEEPGEEELTEEQEEEFRSAVATVRETLLGVPISEKEIADTVWYYYFDVEKSVNYLLQKASSKAGAKEKQNTDSQKEKKQNKSKEALADAKDPLDESSNGIKNLSLNKNDEPAFQTNGEVKMKNSSESDNQPEKKKIKKQNPTDLVSVPEIFEQSNPKPVVHLVVTGHVDSGKSTMLGRIMFELGEINSRSMQKLHNEAANSGKGSFSYAWLLDTTEEERARGVTMDVASTTFESDKKIYEIGDAPGHRDFISGMIAGASSADFAVLVVDSSQNNFERGFLENGQTREHAYLLRALGISEIVVSVNKLDLMSWSEDRFQEIKNIVSDFLIKMVGFKTSNVHFVPISAISGTNLIQKDSSDLYKWYKGPTLLSALDQLVPPEKPYRKPLRLSIDDVYRSPRSVTVTGRVEAGNVQVNQVLYDVSSQEDAYVKNVIRNSDPSSTWAVAGDTVTLQLADIEVNQLRPGDILSNYENPVRRVRSFVAEIQTFDIHGPILSGSTLVLHLGRTVTSVSLKIVTVNNKRSRHIASRKRALVRISFLDGLFPLCLAEECPALGRFILRRSGDTVAAGIVKELC
partner: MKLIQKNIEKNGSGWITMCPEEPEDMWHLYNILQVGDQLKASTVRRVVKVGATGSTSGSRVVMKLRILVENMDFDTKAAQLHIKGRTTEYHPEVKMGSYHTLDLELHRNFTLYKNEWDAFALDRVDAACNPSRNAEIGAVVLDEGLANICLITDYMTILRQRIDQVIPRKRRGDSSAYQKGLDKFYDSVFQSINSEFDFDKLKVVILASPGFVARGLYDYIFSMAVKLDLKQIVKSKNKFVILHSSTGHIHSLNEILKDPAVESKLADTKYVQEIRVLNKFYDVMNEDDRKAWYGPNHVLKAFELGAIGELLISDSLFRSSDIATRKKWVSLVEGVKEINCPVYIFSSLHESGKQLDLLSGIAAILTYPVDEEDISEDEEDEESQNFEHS
B2: Protein dom34 (Schizosaccharomyces pombe (strain ATCC 38366 / 972)), Q9USL5 (parent)
chain: B1 partner
partner: B1 chain

Variants of: B1
Conditions: with dom34_schpo dom34, Q9USL5

effect of a mutation on the interaction | Variant
decreasing interaction | R480A
decreasing interaction | D411A
decreasing interaction | D557A
decreasing interaction | K531A
decreasing interaction | R523A
decreasing interaction | R541A

Variants of: B2
Conditions: with hbs1_schpo hbs1, O74774

effect of a mutation on the interaction | Variant
decreasing interaction | D164A
decreasing interaction | R162A
